Source: paper PMC314469, “Protein Interaction Networks by Proteome Peptide Scanning” (PLoS Biology, 2004)

T1: Abp1 SH3 (ABP1_YEAST), P15891
T1 chain: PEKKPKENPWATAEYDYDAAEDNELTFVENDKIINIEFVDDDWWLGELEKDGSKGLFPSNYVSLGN

B1: YDR465C 1-14 (peptide)
chain: MSELHALLTFPERP
B2: YOR109W 19-31 (peptide)
chain: LYALVLKPVGKKP
B3: YBR023C 712-724 (peptide)
chain: MDDFVTPPDEVKP
B4: YOR086C 1-14 (peptide)
chain: MAKEDTGVTAPKKP
B5: YOR329C 457-469 (peptide)
chain: MRSHMEQPQSIKP
B6: YLR307W 189-201 (peptide)
chain: NATGKHFPKYFRP
B7: YMR012W 785-797 (peptide)
chain: NDEEIKKPTDGKP
B8: YOL110W 177-189 (peptide)
chain: LWSWVLGPLLSRP
B9: YMR205C 179-191 (peptide)
chain: MKTTDTYPSLPKP
B10: YAL024C 1062-1075 (peptide)
chain: MKLEGTYEKIPEKP
B11: YDR093W 1465-1478 (peptide)
chain: LYPQGYDPTDPSRP
B12: YPR065W 1-13 (peptide)
chain: MNPKSSTPKIPRP
B13: YPL204W 475-487 (peptide)
chain: MRSNPQQPPQDKP
B14: YFL007W 20-33 (peptide)
chain: LSQLKRFERSPGRP
B15: YAL026C 1-13 (peptide)
chain: MNDDRETPPKRKP
B16: YAR044W 406-418 (peptide)
chain: LTTNKETPANAKP
B17: YLL043W 81-93 (peptide)
chain: MQDYRPSPQSARP
B18: YDR405W 164-176 (peptide)
chain: MEEPFIWPEEPRP
B19: YER136W 199-212 (peptide)
chain: LWTNDDYLQQPARP
B20: YLR152C 193-205 (peptide)
chain: LTEITKLPNITRP
B21: YDL182W 1-13 (peptide)
chain: MTAAKPNPYAAKP
B22: YDL140C 236-248 (peptide)
chain: LTSLPVPPPPVRP
B23: YLR308W 199-211 (peptide)
chain: NATGNHTPKWFRP
B24: YKL209C 357-370 (peptide)
chain: LTFANVSFSYPSRP
B25: YHR120W 1-13 (peptide)
chain: MKHFFRLPTAFRP
B26: YDR381W 195-207 (peptide)
chain: MAKSQNKPKREKP
B27: YPL074W 405-417 (peptide)
chain: LVSATAVPAESKP
B28: YLR153C 95-108 (peptide)
chain: NSVDRHAFANPDKP
B29: YOR151C 789-802 (peptide)
chain: MDTMANILYYPQKP
B30: YOL061W 323-335 (peptide)
chain: LTSGGSLPVSPRP
B31: YBL052C 441-454 (peptide)
chain: LSRKESKFGTPEKP
B32: YDR147W 440-453 (peptide)
chain: LWALLQSGRLPQRP
B33: YNL105W 40-53 (peptide)
chain: MNIRPSISMRPIKP
B34: YDR479C 283-296 (peptide)
chain: LYMDKFIKLIPMRP
B35: YLL031C 923-935 (peptide)
chain: LTLWSQPPDVLKP
B36: YLR129W 775-788 (peptide)
chain: LWQRKKLGEAPIKP
B37: YBR222C 343-355 (peptide)
chain: MTSNNLPPGKRKP
B38: YER118C 1-14 (peptide)
chain: MSISSKIRPTPRKP
B39: YDL164C 244-256 (peptide)
chain: MGARNVQPTMFKP
B40: YJR126C 471-484 (peptide)
chain: MSKLLKHGWKPLRP
B41: YKL152C 212-225 (peptide)
chain: LVFELDENLKPSKP
B42: YAL054C 478-491 (peptide)
chain: LVTPLAGGVTPMKP
B43: YLR413W 258-270 (peptide)
chain: MQLGSLVPSSLKP
B44: YJL005W 199-211 (peptide)
chain: LSTVNPAPANRKP
B45: YGR031W 172-184 (peptide)
chain: LVSIENAPVSLRP
B46: YBR241C 284-296 (peptide)
chain: LWQYVTDPSYKKP
B47: YBL069W 153-165 (peptide)
chain: LVDPKVDPILLRP
B48: YKL095W 108-121 (peptide)
chain: MEVGGVRNYVPQKP
B49: YDR389W 229-241 (peptide)
chain: LYEQFRNPLRSRP
B50: YHR168W 311-323 (peptide)
chain: LTNLIRNPRFSKP
B51: YCL037C 234-246 (peptide)
chain: MPQNQGFPPQFKP
B52: YNL263C 17-29 (peptide)
chain: NDRFSHTPQQQRP
B53: YDL195W 796-809 (peptide)
chain: MTPGASANALPPKP
B54: YOL003C 52-65 (peptide)
chain: LSYYLAISTNPGRP
B55: YOR098C 607-620 (peptide)
chain: NEAAKPSFSFPGKP
B56: YNL013C 89-101 (peptide)
chain: MARGSHFPILNRP
B57: YOR093C 939-952 (peptide)
chain: MIEPAYRNGGPVKP
B58: YDR457W 2434-2446 (peptide)
chain: NDRNNADPEKKKP
B59: YOR226C 1-13 (peptide)
chain: MFARLANPAHFKP

Target: T1, Abp1 SH3 (ABP1_YEAST), P15891
Assay: SPOT array

Row | normalised SPOT signal, Boehringer light units (BLU); mean over the file's lines of this peptide | Binder
1 | 18.5 | B1
2 | 109 | B2
3 | 40.3 | B3
4 | 119 | B4
5 | 1740 | B5
6 | 146 | B6
7 | 33.6 | B7
8 | 120 | B8
9 | 97.9 | B9
10 | 201 | B10
11 | 57.7 | B11
12 | 1070 | B12
13 | 264 | B13
14 | 524 | B14
15 | 6180 | B15
16 | 111 | B16
17 | 310 | B17
18 | 184 | B18
19 | 30 | B19
20 | 150 | B20

Row | normalised SPOT signal, Boehringer light units (BLU); mean over the file's lines of this peptide | Binder
21 | 2430 | B21
22 | 68.5 | B22
23 | 100 | B23
24 | 100 | B24
25 | 538 | B25
26 | 2220 | B26
27 | 25 | B27
28 | 103 | B28
29 | 117 | B29
30 | 60 | B30
31 | 75.9 | B31
32 | 322 | B32
33 | 9140 | B33
34 | 4270 | B34
35 | 104 | B35
36 | 29.7 | B36
37 | 4880 | B37
38 | 2450 | B38
39 | 6660 | B39
40 | 267 | B40

Row | normalised SPOT signal, Boehringer light units (BLU); mean over the file's lines of this peptide | Binder
41 | 105 | B41
42 | 93.7 | B42
43 | 3590 | B43
44 | 171 | B44
45 | 59.6 | B45
46 | 48.4 | B46
47 | 137 | B47
48 | 68 | B48
49 | 950 | B49
50 | 631 | B50
51 | 308 | B51
52 | 164 | B52
53 | 91.9 | B53
54 | 40.5 | B54
55 | 38 | B55
56 | 2480 | B56
57 | 63.4 | B57
58 | 206 | B58
59 | 2660 | B59
